Assay results from patent US20120301492A1.

B1: WT1 peptide P125-133 (…) (peptide)
peptide: ARMFPNAPY
B2: WT1 peptide P130-138 (…) (peptide)
peptide: NAPYLPSCL
B3: WT1 peptide P121-129 (…) (peptide)
peptide: SSGQARMFP
B4: WT1 peptide P127-135 (…) (peptide)
peptide: MFPNAPYLP
B5: WT1 peptide P129-137 (…) (peptide)
peptide: PNAPYLPSC
B6: WT1 peptide P128-136 (…) (peptide)
peptide: FPNAPYLPS
B7: WT1 peptide P119-127 (…) (peptide)
peptide: QASSGQARM
B8: WT1 peptide P131-139 (…) (peptide)
peptide: APYLPSCLE
B9: WT1 peptide P120-128 (…) (peptide)
peptide: ASSGQARMF
B10: WT1 peptide P117-125 (…) (peptide)
peptide: PSQASSGQA
B11: WT1 peptide P124-132 (…) (peptide)
peptide: QARMFPNAP
B12: WT1 peptide P118-126 (…) (peptide)
peptide: SQASSGQAR
B13: WT1 peptide human p136-144 (…) (peptide)
peptide: SCLESQPAI
B14: WT1 peptide p235-243 (…) (peptide)
peptide: CMTWNQMNL
B15: WT1 peptide p239-247 (…) (peptide)
peptide: NQMNLGATL
B16: WT1 peptide p221-229 (…) (peptide)
peptide: YSSDNLYQM
B17: WT1 peptide p228-236 (…) (peptide)
peptide: QMTSQLECM
B18: WT1 peptide p225-233 (…) (peptide)
peptide: NLYQMTSQL
B19: WT1 peptide p329-337 (…) (peptide)
peptide: GCNKRYFKL
B20: WT1 peptide human p10-18 (…) (peptide)
peptide: ALLPAVPSL

The binders below were run against mouse B6 class I antigens (Mouse MHC Class I; D^b or K^b molecules on the surface of RMA-S cells) (assay: binding of 9-mer peptides within p117-139 to mouse B6 (H-2^b) class I antigens; RMA-S assay as for Table XLVII).
B1 showed a Binding Affinity to Mouse MHC Class I of 1%. B2 was tested, and the Binding Affinity to Mouse MHC Class I was 79%. B3 was tested, and the Binding Affinity to Mouse MHC Class I was 1%. For B4, the Binding Affinity to Mouse MHC Class I was 2%. Work on B5 yielded a Binding Affinity to Mouse MHC Class I of 1%. In the case of B6, the Binding Affinity to Mouse MHC Class I is reported as 1%. Work on B7 yielded a Binding Affinity to Mouse MHC Class I of 2%. Work on B8 yielded a Binding Affinity to Mouse MHC Class I of 1%. Binder B9 has a Binding Affinity to Mouse MHC Class I of 1%. B10 gave a Binding Affinity to Mouse MHC Class I of 2%. B11 gave a Binding Affinity to Mouse MHC Class I of 1%. With B12 the Binding Affinity to Mouse MHC Class I was 2%.

Each binder was assayed against mouse B6 class I antigens (Mouse MHC Class I; D^b or K^b molecules on the surface of RMA-S cells) (assay: RMA-S class I stabilisation, flow cytometry with FITC anti-D^b or anti-K^b; % increase of MFI over medium alone, peptide 25 ug/ml).
In the case of B13, the Binding Affinity to Mouse MHC Class I is reported as 52%. B14 was tested, and the Binding Affinity to Mouse MHC Class I was 33.6%. With B15 the Binding Affinity to Mouse MHC Class I was 1%. Binder B16 has a Binding Affinity to Mouse MHC Class I of 0.8%. Work on B17 yielded a Binding Affinity to Mouse MHC Class I of 1.2%. For B18, the Binding Affinity to Mouse MHC Class I was 5.8%. In the case of B19, the Binding Affinity to Mouse MHC Class I is reported as 1.2%. With B20 the Binding Affinity to Mouse MHC Class I was 2.2%.
